Measurements published in USRE39433 (MEDVET SCIENCE, dated 2006).
Each block holds one molecule with its values, some of them ahead of it.

Tests used:
[1] = target: IL-5R α-chain co-expressed with mutant ^418AAAYA^422 βc on COS cells (human) (UniProt Q01344); assay: Scatchard (LIGAND) of radio-iodinated IL-5 on COS cells with IL-5R α-chain and ^418AAAYA^422 βc; single receptor class
[2] = target: IL-5R α-chain co-expressed with Y421A βc on COS cells (human) (UniProt Q01344); assay: Scatchard (LIGAND) of radio-iodinated IL-5 on COS cells with IL-5R α-chain and Y421A βc; single receptor class
Chain of IL-5R α-chain co-expressed with Y421A βc on COS cells (human) (Q01344 21-420, chain 1 of 2): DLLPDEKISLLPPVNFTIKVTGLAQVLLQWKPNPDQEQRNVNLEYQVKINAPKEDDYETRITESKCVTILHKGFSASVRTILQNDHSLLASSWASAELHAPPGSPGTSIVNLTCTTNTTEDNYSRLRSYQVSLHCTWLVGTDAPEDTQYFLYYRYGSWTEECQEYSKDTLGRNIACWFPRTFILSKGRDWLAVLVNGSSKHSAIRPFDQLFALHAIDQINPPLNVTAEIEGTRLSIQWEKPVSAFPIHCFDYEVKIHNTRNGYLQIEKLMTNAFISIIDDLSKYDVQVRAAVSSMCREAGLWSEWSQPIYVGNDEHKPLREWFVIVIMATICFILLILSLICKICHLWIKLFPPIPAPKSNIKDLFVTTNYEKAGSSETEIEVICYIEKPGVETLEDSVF
Chain of IL-5R α-chain co-expressed with Y421A βc on COS cells (human) (P32927 17-897 Y421A, chain 2 of 2, further chain): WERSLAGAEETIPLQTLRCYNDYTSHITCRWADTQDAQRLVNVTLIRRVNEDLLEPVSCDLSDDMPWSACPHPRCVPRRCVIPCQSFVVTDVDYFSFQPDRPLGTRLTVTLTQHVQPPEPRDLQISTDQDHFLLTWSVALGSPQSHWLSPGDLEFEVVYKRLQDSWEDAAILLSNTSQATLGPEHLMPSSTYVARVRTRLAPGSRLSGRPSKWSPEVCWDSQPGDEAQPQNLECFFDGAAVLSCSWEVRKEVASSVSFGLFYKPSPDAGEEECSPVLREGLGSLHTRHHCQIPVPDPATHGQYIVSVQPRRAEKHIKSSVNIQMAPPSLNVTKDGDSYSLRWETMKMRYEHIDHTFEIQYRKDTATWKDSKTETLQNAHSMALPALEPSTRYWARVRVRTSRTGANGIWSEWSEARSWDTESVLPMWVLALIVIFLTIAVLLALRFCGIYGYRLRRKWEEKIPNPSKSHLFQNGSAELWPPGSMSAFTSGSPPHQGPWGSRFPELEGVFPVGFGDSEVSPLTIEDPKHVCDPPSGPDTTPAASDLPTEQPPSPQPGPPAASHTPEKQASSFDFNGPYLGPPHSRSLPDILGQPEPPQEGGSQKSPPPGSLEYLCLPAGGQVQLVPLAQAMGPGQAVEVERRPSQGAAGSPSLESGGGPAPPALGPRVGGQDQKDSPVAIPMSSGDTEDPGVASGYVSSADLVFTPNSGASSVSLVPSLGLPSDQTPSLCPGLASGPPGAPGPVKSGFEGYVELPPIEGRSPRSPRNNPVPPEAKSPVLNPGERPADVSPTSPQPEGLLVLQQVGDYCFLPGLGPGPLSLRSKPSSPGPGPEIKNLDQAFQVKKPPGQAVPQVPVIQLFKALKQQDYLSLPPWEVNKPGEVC

[3] = target: IL-3R α-chain co-expressed with Y421A βc on cells (human) (UniProt P26951); assay: cell-based or functional assay
Chain of IL-3R α-chain co-expressed with Y421A βc on cells (human) (P26951 19-378, chain 1 of 2): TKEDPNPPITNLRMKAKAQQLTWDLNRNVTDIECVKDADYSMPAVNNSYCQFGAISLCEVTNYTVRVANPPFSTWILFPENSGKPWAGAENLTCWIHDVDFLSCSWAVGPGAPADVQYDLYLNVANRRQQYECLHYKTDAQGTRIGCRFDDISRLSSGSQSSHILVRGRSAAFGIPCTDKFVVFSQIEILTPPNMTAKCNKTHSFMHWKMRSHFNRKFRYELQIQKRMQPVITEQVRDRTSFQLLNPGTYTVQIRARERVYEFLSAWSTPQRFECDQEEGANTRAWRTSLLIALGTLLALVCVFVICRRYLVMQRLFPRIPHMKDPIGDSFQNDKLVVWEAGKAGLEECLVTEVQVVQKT
Chain of IL-3R α-chain co-expressed with Y421A βc on cells (human) (P32927 17-897 Y421A, chain 2 of 2, further chain): as the sequence (P32927 17-897 Y421A, chain 2 of 2, further chain) above

[4] = target: IL-3R α-chain co-expressed with G420A βc on COS cells (human) (UniProt P26951); assay: Scatchard (LIGAND) of 125I-IL-3 on COS cells with α-chains and G420A βc; high affinity site 1
Chain of IL-3R α-chain co-expressed with G420A βc on COS cells (human) (P26951 19-378, chain 1 of 2): as the sequence (P26951 19-378, chain 1 of 2) above
Chain of IL-3R α-chain co-expressed with G420A βc on COS cells (human) (P32927 17-897 G420A, chain 2 of 2, further chain): as the sequence (P32927 17-897 Y421A, chain 2 of 2, further chain) above, with G404A, A405Y counted along it

[5] = target: IL-3R α-chain co-expressed with mutant ^418AAAYA^422 βc on COS cells (human) (UniProt P26951); assay: radioligand saturation binding on transfected COS cells
Chain of IL-3R α-chain co-expressed with mutant ^418AAAYA^422 βc on COS cells (human) (P26951 19-378, stated change not applied, chain 1 of 2): as the sequence (P26951 19-378, chain 1 of 2) above
Chain of IL-3R α-chain co-expressed with mutant ^418AAAYA^422 βc on COS cells (human) (P32927 other isoform, or with tags, fused parts or gaps mutant, chain 2 of 2, further chain): as the sequence (P32927 17-897 Y421A, chain 2 of 2, further chain) above, with R402A, T403A, G404A, A405Y, N406A counted along it

[6] = target: IL-3R α-chain co-expressed with R418A βc on COS cells (human) (UniProt P26951); assay: as above
Chain of IL-3R α-chain co-expressed with R418A βc on COS cells (human) (P26951 19-378, chain 1 of 2): as the sequence (P26951 19-378, chain 1 of 2) above
Chain of IL-3R α-chain co-expressed with R418A βc on COS cells (human) (P32927 17-897 R418A, chain 2 of 2, further chain): as the sequence (P32927 17-897 Y421A, chain 2 of 2, further chain) above, with R402A, A405Y counted along it

[7] = target: IL-3R α-chain co-expressed with N422A βc on COS cells (human) (UniProt P26951); assay: Scatchard (LIGAND) of 125I-IL-3 on COS cells with α-chains and N422A βc; high affinity site 1
Chain of IL-3R α-chain co-expressed with N422A βc on COS cells (human) (P26951 19-378, chain 1 of 2): as the sequence (P26951 19-378, chain 1 of 2) above
Chain of IL-3R α-chain co-expressed with N422A βc on COS cells (human) (P32927 17-897 N422A, chain 2 of 2, further chain): as the sequence (P32927 17-897 Y421A, chain 2 of 2, further chain) above, with A405Y, N406A counted along it

[8] = target: IL-3R α-chain co-expressed with T419A βc on COS cells (human) (UniProt P26951); assay: Scatchard (LIGAND) of 125I-IL-3 on COS cells with α-chains and T419A βc; high affinity site 1
Chain of IL-3R α-chain co-expressed with T419A βc on COS cells (human) (P26951 19-378, chain 1 of 2): as the sequence (P26951 19-378, chain 1 of 2) above
Chain of IL-3R α-chain co-expressed with T419A βc on COS cells (human) (P32927 17-897 T419A, chain 2 of 2, further chain): as the sequence (P32927 17-897 Y421A, chain 2 of 2, further chain) above, with T403A, A405Y counted along it

[9] = target: IL-3R α-chain co-expressed with R418A βc on COS cells (human) (UniProt P26951); assay: Scatchard (LIGAND) of 125I-IL-3 on COS cells with α-chains and R418A βc; high affinity site 1
[10] = target: IL-3R α-chain co-expressed with mutant ^418AAAYA^422 βc on COS cells (human) (UniProt P26951); assay: Scatchard (LIGAND) of 125I-IL-3 on COS cells with α-chains and ^418AAAYA^422 βc; high affinity site 1
[11] = target: T1, IL-3R α-chain co-expressed with wild type βc on cells (human, UniProt P26951 19-378; P32927 17-897); assay: Scatchard (LIGAND) of 125I-IL-3 on COS cells with α-chains and wild type βc; high affinity site 1, low affinity site fixed at 50 nM
T1 construct: whole, on cells; The COS cells carried GM-CSFR and IL-3R α-chains together with βc; also called Wt βc
T1 sequence (P26951 19-378, chain 1 of 2): as the sequence (P26951 19-378, chain 1 of 2) above
T1 sequence (P32927 17-897, chain 2 of 2): as the sequence (P32927 17-897 Y421A, chain 2 of 2, further chain) above, with A405Y counted along it

[12] = target: T2, IL-3R α-chain expressed on cells without βc (UniProt P26951 19-378, limits assumed); assay: radioligand saturation binding, COS cells with α-chain only; range of affinities observed
T2 construct: whole, on cells; also called α-chain only; hIL-3Rα
T2 sequence (P26951 19-378 limits assumed): as the sequence (P26951 19-378, chain 1 of 2) above

Chain of IL-5R α-chain co-expressed with mutant ^418AAAYA^422 βc on COS cells (human) (Q01344 21-420, stated change not applied, chain 1 of 2): as the sequence (Q01344 21-420, chain 1 of 2) above
Chain of IL-5R α-chain co-expressed with mutant ^418AAAYA^422 βc on COS cells (human) (P32927 other isoform, or with tags, fused parts or gaps mutant, chain 2 of 2, further chain): as the sequence (P32927 17-897 Y421A, chain 2 of 2, further chain) above, with R402A, T403A, G404A, A405Y, N406A counted along it

- Kd [1]: 0.71 nM
- Kd [2]: 1.86 nM
Molecule: Human interleukin IL-5 (from UniProt P05113 20-134) (ligand)

- STAT5-L activation (EMSA with STAT5 probe, phosphorimager) in transfected Jurkat cells; concentration for half maximal activation [3]: > 3 µM
- Kd [4]: 0.196 nM
- fold reduction of affinity against wild type high affinity binding [5]: 3 fold
- fold reduction of high affinity binding against wild type βc [6]: 2 to 3 fold
- Kd [7]: 0.08 nM
- Kd [8]: 0.151 nM
- Kd [9]: 0.511 nM
- Kd [10]: 0.113 nM
Molecule: Human interleukin (IL)-3 (from UniProt P08700 20-152) (ligand)

- Kd [11]: 0.141 nM
- Kd [12]: 20 to 100 nM
B1: Human interleukin (IL)-3 (ligand, UniProt P08700 20-152, looked up)
chain: APMTQTTPLKTSWVNCSNMIDEIITHLKQPPLPLLDFNNLNGEDQDILMENNLRRPNLEAFNRAVKSLQNASAIESILKNLLPCLPLATAAPTRHPIHIKDGDWNEFRRKLTFYLKTLENAQAQQTTLSLAIF
modifications: radio-iodinated (125I) in the saturation binding studies
notes: unlabelled in the STAT5-L assays on Jurkat cells; also called ^125I-IL-3
